According to patent publication US20070078092A1 (CUREGENICS, published 2007):
One block for each binder: values may come before it. Numbered stars: 1 amine (or outer) side, 2 acyl side, 3 side chain; on linkers, the order of the positions; unused ones are H or OH. Square brackets hold non-standard residues; d marks the D form. Ends that are not written are not given here. * marks the point of attachment. Cholesteryloxycarbonyl = CC(C)CCC[C@@H](C)[C@H]1CC[C@H]2[C@@H]3CC=C4C[C@@H](OC(=O)*)CC[C@]4(C)[C@H]3CC[C@]12C; Ser(Me) = COC[C@H](N[*:1])C(=O)[*:2]; hLeu = CC(C)CC[C@H](N)C(=O)O; Nva = CCC[C@H](N)C(=O)O; Dap = NC[C@H](N)C(=O)O; GABA = NCCCC(=O)O; βAla = NCCC(=O)O

Molecular target: protein kinase B (PKB)
Assay: cell-based or functional assay

B1: PTR 6296 (peptide)
peptide: Cholesteryloxycarbonyl-[βAla]RPR[Nva]Y[Dap][hLeu]-NH2
SMILES: CCC[C@H](NC(=O)[C@H](CCCNC(=N)N)NC(=O)[C@@H]1CCCN1C(=O)[C@H](CCCNC(=N)N)NC(=O)CCNC(=O)O[C@H]1CC[C@@]2(C)C(=CC[C@H]3[C@@H]4CC[C@H]([C@H](C)CCCC(C)C)[C@@]4(C)CC[C@@H]32)C1)C(=O)N[C@@H](Cc1ccc(O)cc1)C(=O)N[C@@H](CN)C(=O)N[C@@H](CCC(C)C)C(N)=O
- IC50, in vitro kinase assay PKB: 2000 nM

B2: PTR 6306 (peptide)
peptide: Cholesteryloxycarbonyl-GRPR[Nva]Y[Ser(Me)][hLeu]-NH2
SMILES: CCC[C@H](NC(=O)[C@H](CCCNC(=N)N)NC(=O)[C@@H]1CCCN1C(=O)[C@H](CCCNC(=N)N)NC(=O)CNC(=O)O[C@H]1CC[C@@]2(C)C(=CC[C@H]3[C@@H]4CC[C@H]([C@H](C)CCCC(C)C)[C@@]4(C)CC[C@@H]32)C1)C(=O)N[C@@H](Cc1ccc(O)cc1)C(=O)N[C@@H](COC)C(=O)N[C@@H](CCC(C)C)C(N)=O
- IC50, in vitro kinase assay PKB: 500 nM

B3: PTR 6294 (peptide)
peptide: Cholesteryloxycarbonyl-GRPR[Nva]Y[Dap][hLeu]-NH2
SMILES: CCC[C@H](NC(=O)[C@H](CCCNC(=N)N)NC(=O)[C@@H]1CCCN1C(=O)[C@H](CCCNC(=N)N)NC(=O)CNC(=O)O[C@H]1CC[C@@]2(C)C(=CC[C@H]3[C@@H]4CC[C@H]([C@H](C)CCCC(C)C)[C@@]4(C)CC[C@@H]32)C1)C(=O)N[C@@H](Cc1ccc(O)cc1)C(=O)N[C@@H](CN)C(=O)N[C@@H](CCC(C)C)C(N)=O
- IC50, in vitro kinase assay PKB: 1000 nM

B4: PTR 6312 (peptide)
peptide: [dK][dK][dK][dK][dK][dK][dK][dK]RPR[Nva]Y[Dap][hLeu]K(Cholesteryloxycarbonyl)-NH2
modifications: N-terminus assumed
SMILES: CCC[C@H](NC(=O)[C@H](CCCNC(=N)N)NC(=O)[C@@H]1CCCN1C(=O)[C@H](CCCNC(=N)N)NC(=O)[C@@H](CCCCN)NC(=O)[C@@H](CCCCN)NC(=O)[C@@H](CCCCN)NC(=O)[C@@H](CCCCN)NC(=O)[C@@H](CCCCN)NC(=O)[C@@H](CCCCN)NC(=O)[C@@H](CCCCN)NC(=O)[C@H](N)CCCCN)C(=O)N[C@@H](Cc1ccc(O)cc1)C(=O)N[C@@H](CN)C(=O)N[C@@H](CCC(C)C)C(=O)N[C@@H](CCCCNC(=O)O[C@H]1CC[C@@]2(C)C(=CC[C@H]3[C@@H]4CC[C@H]([C@H](C)CCCC(C)C)[C@@]4(C)CC[C@@H]32)C1)C(N)=O
- IC50, in vitro kinase assay PKB: 100 nM

B7: PTR 6320 (peptide)
peptide: Cholesteryloxycarbonyl-[dK][dK][dK]RPR[Nva]Y[Dap][hLeu]-NH2
SMILES: CCC[C@H](NC(=O)[C@H](CCCNC(=N)N)NC(=O)[C@@H]1CCCN1C(=O)[C@H](CCCNC(=N)N)NC(=O)[C@@H](CCCCN)NC(=O)[C@@H](CCCCN)NC(=O)[C@@H](CCCCN)NC(=O)O[C@H]1CC[C@@]2(C)C(=CC[C@H]3[C@@H]4CC[C@H]([C@H](C)CCCC(C)C)[C@@]4(C)CC[C@@H]32)C1)C(=O)N[C@@H](Cc1ccc(O)cc1)C(=O)N[C@@H](CN)C(=O)N[C@@H](CCC(C)C)C(N)=O
- IC50, in vitro kinase assay PKB: 200 nM

B10: PTR 6298 (peptide)
peptide: Cholesteryloxycarbonyl-[GABA]RPR[Nva]Y[Dap][hLeu]-NH2
SMILES: CCC[C@H](NC(=O)[C@H](CCCNC(=N)N)NC(=O)[C@@H]1CCCN1C(=O)[C@H](CCCNC(=N)N)NC(=O)CCCNC(=O)O[C@H]1CC[C@@]2(C)C(=CC[C@H]3[C@@H]4CC[C@H]([C@H](C)CCCC(C)C)[C@@]4(C)CC[C@@H]32)C1)C(=O)N[C@@H](Cc1ccc(O)cc1)C(=O)N[C@@H](CN)C(=O)N[C@@H](CCC(C)C)C(N)=O
- IC50, in vitro kinase assay PKB: 2000 nM

B12: PTR 6308 (peptide)
peptide: Cholesteryloxycarbonyl-[βAla]RPR[Nva]Y[Ser(Me)][hLeu]-NH2
SMILES: CCC[C@H](NC(=O)[C@H](CCCNC(=N)N)NC(=O)[C@@H]1CCCN1C(=O)[C@H](CCCNC(=N)N)NC(=O)CCNC(=O)O[C@H]1CC[C@@]2(C)C(=CC[C@H]3[C@@H]4CC[C@H]([C@H](C)CCCC(C)C)[C@@]4(C)CC[C@@H]32)C1)C(=O)N[C@@H](Cc1ccc(O)cc1)C(=O)N[C@@H](COC)C(=O)N[C@@H](CCC(C)C)C(N)=O
- IC50, in vitro kinase assay PKB: 500 nM

B13: PTR 6304 (peptide)
peptide: Cholesteryloxycarbonyl-RPR[Nva]Y[Ser(Me)][hLeu]-NH2
SMILES: CCC[C@H](NC(=O)[C@H](CCCNC(=N)N)NC(=O)[C@@H]1CCCN1C(=O)[C@H](CCCNC(=N)N)NC(=O)O[C@H]1CC[C@@]2(C)C(=CC[C@H]3[C@@H]4CC[C@H]([C@H](C)CCCC(C)C)[C@@]4(C)CC[C@@H]32)C1)C(=O)N[C@@H](Cc1ccc(O)cc1)C(=O)N[C@@H](COC)C(=O)N[C@@H](CCC(C)C)C(N)=O
- IC50, in vitro kinase assay PKB: 500 nM

B15: PTR 6318 (peptide)
peptide: Cholesteryloxycarbonyl-[dK][dK]RPR[Nva]Y[Dap][hLeu]-NH2
SMILES: CCC[C@H](NC(=O)[C@H](CCCNC(=N)N)NC(=O)[C@@H]1CCCN1C(=O)[C@H](CCCNC(=N)N)NC(=O)[C@@H](CCCCN)NC(=O)[C@@H](CCCCN)NC(=O)O[C@H]1CC[C@@]2(C)C(=CC[C@H]3[C@@H]4CC[C@H]([C@H](C)CCCC(C)C)[C@@]4(C)CC[C@@H]32)C1)C(=O)N[C@@H](Cc1ccc(O)cc1)C(=O)N[C@@H](CN)C(=O)N[C@@H](CCC(C)C)C(N)=O
- IC50, in vitro kinase assay PKB: 200 nM

Continued, values first:

- IC50, in vitro kinase assay PKB: 1000 nM
B5: PTR 6328 (peptide)
peptide: Cholesteryloxycarbonyl-GGRPR[Nva]Y[Dap][hLeu]-NH2
SMILES: CCC[C@H](NC(=O)[C@H](CCCNC(=N)N)NC(=O)[C@@H]1CCCN1C(=O)[C@H](CCCNC(=N)N)NC(=O)CNC(=O)CNC(=O)O[C@H]1CC[C@@]2(C)C(=CC[C@H]3[C@@H]4CC[C@H]([C@H](C)CCCC(C)C)[C@@]4(C)CC[C@@H]32)C1)C(=O)N[C@@H](Cc1ccc(O)cc1)C(=O)N[C@@H](CN)C(=O)N[C@@H](CCC(C)C)C(N)=O

- IC50, in vitro kinase assay PKB: 100 nM
B6: PTR 6326 (peptide)
peptide: Cholesteryloxycarbonyl-[dK][dK][dK][dK][dK][dK]RPR[Nva]Y[Dap][hLeu]-NH2
SMILES: CCC[C@H](NC(=O)[C@H](CCCNC(=N)N)NC(=O)[C@@H]1CCCN1C(=O)[C@H](CCCNC(=N)N)NC(=O)[C@@H](CCCCN)NC(=O)[C@@H](CCCCN)NC(=O)[C@@H](CCCCN)NC(=O)[C@@H](CCCCN)NC(=O)[C@@H](CCCCN)NC(=O)[C@@H](CCCCN)NC(=O)O[C@H]1CC[C@@]2(C)C(=CC[C@H]3[C@@H]4CC[C@H]([C@H](C)CCCC(C)C)[C@@]4(C)CC[C@@H]32)C1)C(=O)N[C@@H](Cc1ccc(O)cc1)C(=O)N[C@@H](CN)C(=O)N[C@@H](CCC(C)C)C(N)=O

- IC50, in vitro kinase assay PKB: 100 nM
B8: PTR 6962 (peptide)
peptide: Cholesteryloxycarbonyl-[dK][dK][dK][dK][dK][dK][dK][dK]RPR[Nva]Y[Dap][hLeu]-NH2
SMILES: CCC[C@H](NC(=O)[C@H](CCCNC(=N)N)NC(=O)[C@@H]1CCCN1C(=O)[C@H](CCCNC(=N)N)NC(=O)[C@@H](CCCCN)NC(=O)[C@@H](CCCCN)NC(=O)[C@@H](CCCCN)NC(=O)[C@@H](CCCCN)NC(=O)[C@@H](CCCCN)NC(=O)[C@@H](CCCCN)NC(=O)[C@@H](CCCCN)NC(=O)[C@@H](CCCCN)NC(=O)O[C@H]1CC[C@@]2(C)C(=CC[C@H]3[C@@H]4CC[C@H]([C@H](C)CCCC(C)C)[C@@]4(C)CC[C@@H]32)C1)C(=O)N[C@@H](Cc1ccc(O)cc1)C(=O)N[C@@H](CN)C(=O)N[C@@H](CCC(C)C)C(N)=O

- IC50, in vitro kinase assay PKB: 1000 nM
B9: PTR 6330 (peptide)
peptide: Cholesteryloxycarbonyl-GGGRPR[Nva]Y[Dap][hLeu]-NH2
SMILES: CCC[C@H](NC(=O)[C@H](CCCNC(=N)N)NC(=O)[C@@H]1CCCN1C(=O)[C@H](CCCNC(=N)N)NC(=O)CNC(=O)CNC(=O)CNC(=O)O[C@H]1CC[C@@]2(C)C(=CC[C@H]3[C@@H]4CC[C@H]([C@H](C)CCCC(C)C)[C@@]4(C)CC[C@@H]32)C1)C(=O)N[C@@H](Cc1ccc(O)cc1)C(=O)N[C@@H](CN)C(=O)N[C@@H](CCC(C)C)C(N)=O

- IC50, in vitro kinase assay PKB: 100 nM
B11: PTR 6324 (peptide)
peptide: Cholesteryloxycarbonyl-[dK][dK][dK][dK][dK]RPR[Nva]Y[Dap][hLeu]-NH2
SMILES: CCC[C@H](NC(=O)[C@H](CCCNC(=N)N)NC(=O)[C@@H]1CCCN1C(=O)[C@H](CCCNC(=N)N)NC(=O)[C@@H](CCCCN)NC(=O)[C@@H](CCCCN)NC(=O)[C@@H](CCCCN)NC(=O)[C@@H](CCCCN)NC(=O)[C@@H](CCCCN)NC(=O)O[C@H]1CC[C@@]2(C)C(=CC[C@H]3[C@@H]4CC[C@H]([C@H](C)CCCC(C)C)[C@@]4(C)CC[C@@H]32)C1)C(=O)N[C@@H](Cc1ccc(O)cc1)C(=O)N[C@@H](CN)C(=O)N[C@@H](CCC(C)C)C(N)=O

- IC50, in vitro kinase assay PKB: 100 nM
B14: PTR 6322 (peptide)
peptide: Cholesteryloxycarbonyl-[dK][dK][dK][dK]RPR[Nva]Y[Dap][hLeu]-NH2
SMILES: CCC[C@H](NC(=O)[C@H](CCCNC(=N)N)NC(=O)[C@@H]1CCCN1C(=O)[C@H](CCCNC(=N)N)NC(=O)[C@@H](CCCCN)NC(=O)[C@@H](CCCCN)NC(=O)[C@@H](CCCCN)NC(=O)[C@@H](CCCCN)NC(=O)O[C@H]1CC[C@@]2(C)C(=CC[C@H]3[C@@H]4CC[C@H]([C@H](C)CCCC(C)C)[C@@]4(C)CC[C@@H]32)C1)C(=O)N[C@@H](Cc1ccc(O)cc1)C(=O)N[C@@H](CN)C(=O)N[C@@H](CCC(C)C)C(N)=O
